Assays:
[1] = molecular target: EWEnH fusion protein (EWE fused to FH CCP2-4) (human); test: BLI; kinetics: EWE, EWEµH or EWEnH held on anti-penta his (His1K) biosensors, dilution series of C3b or iC3b; 20 mM HEPES pH 7.5, 150 mM NaCl, 30°C; 1:1 model
[2] = molecular target: EWEµH fusion protein (EWE fused to FH CCP2-4 and CCP19-20) (human); test: as above

Row | Kd [1] [nM] | Kd [2] [nM] | Substance
1 | 7.1 | 2.9 | iC3b (domain or fragment)
2 | 8.9 | 0.4 | C3b (proteolytic fragment of complement component C3) (from UniProt P01024 749-1663; P01024 749-1663) (domain or fragment)

From article PMC9352930
